The pIC50 is −log10 of the IC50, conventionally taken in molar units. A higher pIC50 goes with a low IC50. The pKi is the negative decadic logarithm of the Ki, by convention in mol/L.

pIC50, pKi: −log10 of the molar value.

Among the data in PMC8605023 are IC50 and Ki values, retold here.

The target of assay [1] is G3BP2 NTF2 domain (human) (UniProt Q9UN86).
In assay [2] the target is G3BP1 NTF2 domain (human) (UniProt Q13283).
Assay [3] deals with USP7 (human) (UniProt Q93009).
Assay [4] concerns the target MAP1LC3C ATG8 domain (human) (UniProt Q9BXW4).

Sequence of USP7 (human) (Q93009 whole entry, the tested form may be a part): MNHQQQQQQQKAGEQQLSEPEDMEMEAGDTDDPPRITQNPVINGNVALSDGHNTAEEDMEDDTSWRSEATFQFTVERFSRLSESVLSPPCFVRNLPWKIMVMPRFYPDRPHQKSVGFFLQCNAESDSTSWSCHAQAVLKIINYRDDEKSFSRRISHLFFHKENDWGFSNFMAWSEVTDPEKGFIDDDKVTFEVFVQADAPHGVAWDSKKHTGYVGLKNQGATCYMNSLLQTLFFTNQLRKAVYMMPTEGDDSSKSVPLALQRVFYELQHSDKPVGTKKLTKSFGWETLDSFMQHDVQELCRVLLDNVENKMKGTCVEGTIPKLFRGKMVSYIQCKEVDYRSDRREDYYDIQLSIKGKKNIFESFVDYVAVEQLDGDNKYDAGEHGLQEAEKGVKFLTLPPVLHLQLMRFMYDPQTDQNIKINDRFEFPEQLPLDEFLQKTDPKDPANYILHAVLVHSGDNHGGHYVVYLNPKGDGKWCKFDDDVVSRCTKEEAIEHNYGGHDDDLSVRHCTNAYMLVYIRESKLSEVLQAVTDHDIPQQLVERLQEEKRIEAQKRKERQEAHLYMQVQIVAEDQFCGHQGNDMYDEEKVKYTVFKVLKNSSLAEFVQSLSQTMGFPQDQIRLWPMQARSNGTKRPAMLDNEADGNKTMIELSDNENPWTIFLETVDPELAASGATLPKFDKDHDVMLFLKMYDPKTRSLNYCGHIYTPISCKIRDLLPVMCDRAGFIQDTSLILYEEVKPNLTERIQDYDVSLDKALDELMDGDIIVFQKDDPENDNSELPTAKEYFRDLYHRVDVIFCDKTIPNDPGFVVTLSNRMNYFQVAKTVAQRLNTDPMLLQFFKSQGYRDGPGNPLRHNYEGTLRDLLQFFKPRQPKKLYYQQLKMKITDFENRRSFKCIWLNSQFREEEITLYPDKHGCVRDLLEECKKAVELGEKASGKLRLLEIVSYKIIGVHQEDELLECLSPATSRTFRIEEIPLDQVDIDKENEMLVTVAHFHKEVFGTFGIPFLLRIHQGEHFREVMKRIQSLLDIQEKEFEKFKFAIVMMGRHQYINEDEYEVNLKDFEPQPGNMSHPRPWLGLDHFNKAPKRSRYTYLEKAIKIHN
Sequence of MAP1LC3C ATG8 domain (human) (Q9BXW4 1-126): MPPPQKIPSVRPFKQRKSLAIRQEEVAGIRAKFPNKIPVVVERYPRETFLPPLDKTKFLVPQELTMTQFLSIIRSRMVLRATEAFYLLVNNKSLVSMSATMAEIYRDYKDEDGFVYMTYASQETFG
Sequence of G3BP1 NTF2 domain (human) (Q13283 11-133): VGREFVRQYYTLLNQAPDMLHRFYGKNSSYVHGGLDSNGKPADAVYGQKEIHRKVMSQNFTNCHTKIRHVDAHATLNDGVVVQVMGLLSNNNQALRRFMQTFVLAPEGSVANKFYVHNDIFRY
Sequence of G3BP2 NTF2 domain (human) (Q9UN86 11-133): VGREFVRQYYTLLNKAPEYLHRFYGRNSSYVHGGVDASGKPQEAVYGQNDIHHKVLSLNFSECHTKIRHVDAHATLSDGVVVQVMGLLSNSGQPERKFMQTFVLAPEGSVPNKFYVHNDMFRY

For N peptide 12-26 (Sars-CoV2), the pIC50 was 5.00 in assay [1] and 4.77 in assay [2].
In assay [3], N peptide 405-419 (Sars-CoV2) showed a pIC50 of 2.98 and a pKi of 3.82.
As for NSP3 peptide 2019-2034 (Sars-CoV2), in assay [3], the pIC50 was 3.57 and the negative logarithm of the Ki (pKi) is 4.43. Also, in assay [4], the pIC50 is 2.82 and the pKi was 3.68.
